Test results as given in IntAct's records for PubMed 21920025.

Columns and labels:
prio_human PRNP = prio_human PRNP (UniProt P04156)
prio_bovin PRNP = prio_bovin PRNP (UniProt P10279)

Major prion protein (Bos taurus (Bovine)) (from UniProt P10279) L149I
effect of a mutation on the interaction (prio_human PRNP): decreasing interaction

Major prion protein (Homo sapiens) (from UniProt P04156) M129V
effect of a mutation on the interaction (prio_bovin PRNP): decreasing interaction
